Values of other authors as cited in publication PMC6006191.

Target: GLRX3 (Homo sapiens) (UniProt O76003)
Assay: NMR

UniProt O76003, sequence (O76003 2-335): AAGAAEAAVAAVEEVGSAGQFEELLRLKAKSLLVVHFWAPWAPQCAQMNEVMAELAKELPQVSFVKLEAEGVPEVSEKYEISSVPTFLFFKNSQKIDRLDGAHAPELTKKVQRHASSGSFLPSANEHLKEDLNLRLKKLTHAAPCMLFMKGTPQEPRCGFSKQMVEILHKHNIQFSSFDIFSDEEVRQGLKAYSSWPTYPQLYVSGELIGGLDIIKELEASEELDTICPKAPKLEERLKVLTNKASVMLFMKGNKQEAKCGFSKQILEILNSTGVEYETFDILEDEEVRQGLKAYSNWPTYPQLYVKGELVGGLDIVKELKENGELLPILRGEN

Kd: 25 µM
Substance: BOLA2 (apo) (from UniProt Q9H3K6)
